Measured values taken from patent US20210363269A1 (ALX ONCOLOGY, published 2021).
Substitutions are numbered along the chain they refer to.

Experiments:
[1] = molecular target: T1, human SIRP-α v2 D1 domain (human); assay: SPR
T1 construct: also called human v2
Outline: (§1)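 scFv-Fc antibody clones were captured from pre-filtered culture media onto anti-human IgG Fc, amine-coupled at about 4000 RU on a GLC chip in a ProteOn XPR36 instrument. SIRP analytes were passed over in PBS pH 7.4 with 0.01% Tween-20 at 25° C, and responses were double-referenced against interspot and buffer-blank signals. Curves were fitted to a 1:1 Langmuir model. Dissociation rate constants (koff) were taken from those fits.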

[2] = molecular target: T2, C57BL/6 mouse SIRP-α D1 domain (mouse (C57BL/6 strain), UniProt P97797 32-148); assay: SPR
T2 sequence: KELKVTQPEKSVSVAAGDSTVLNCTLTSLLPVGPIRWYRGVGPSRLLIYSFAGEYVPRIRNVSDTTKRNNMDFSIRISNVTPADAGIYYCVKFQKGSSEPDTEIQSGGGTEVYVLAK
Outline: as §1

human SIRPβ isoform 1 [3] = molecular target: T3, human SIRPβ isoform 1 (human, UniProt O00241 30-148); assay: SPR
T3 construct: also called SIRPb; sirpb1
Outline: as §1

[4] = molecular target: T4, high affinity SIRP-α D1 variant CV1-3; assay: SPR, Langmuir fit
T4 chain: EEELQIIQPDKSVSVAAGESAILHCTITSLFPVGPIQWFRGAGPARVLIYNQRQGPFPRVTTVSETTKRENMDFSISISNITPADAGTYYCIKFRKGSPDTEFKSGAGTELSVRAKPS
Outline: as §1

[5] = molecular target: T5, human SIRP-α v1 D1 domain (human, UniProt P78324 31-149); assay: SPR, Langmuir fit
T5 construct: also called human v1
Outline: as §1

[6] = molecular target: T6, cynomolgus SIRP-α D1 domain (cyno1) (cynomolgus monkey, UniProt Q5TFQ8 30-148 (human entry), limits assumed); assay: SPR, Langmuir fit
T6 chain: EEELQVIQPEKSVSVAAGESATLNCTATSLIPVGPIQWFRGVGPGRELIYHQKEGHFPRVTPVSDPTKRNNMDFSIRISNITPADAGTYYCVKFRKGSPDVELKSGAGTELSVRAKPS
Outline: as §1

[7] = molecular target: T7, cynomolgus SIRP-α D1 domain (cyno2) (cynomolgus monkey, UniProt Q5TFQ8 30-148 (human entry), limits assumed); assay: SPR, Langmuir fit
T7 chain: T6 chain with E19D, A27V, T28S, V42A, H51N, Q52L, P62A
Outline: as §1

human SIRP-α v1 [8] = molecular target: T8, human SIRP-α v1 (human, UniProt P78324 31-149); assay: SPR Koff +/-
T8 construct: also called Human v1; Human V1
Outline: (§2)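 Purified antibodies were either amine-coupled to a GLC chip or captured via biotinylated Protein A on an NLC chip of a ProteOn XPR36 biosensor. Runs were at 25° C in PBS pH 7.4 with 0.01% Tween-20. SIRP analytes were injected in one-shot kinetic mode at nominal concentrations set by A280 absorbance. Double-referenced data were fitted globally to a simple Langmuir model, giving apparent rate constants, with KD taken as kd/ka.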

human SIRPβ isoform 1 [9] = molecular target: T9, human SIRPβ isoform 1 (human, UniProt O00241 30-148); assay: SPR Koff +/-
T9 construct: also called Beta; Human SIRPb
Outline: as §2

human SIRPγ isoform 1 [10] = molecular target: T10, human SIRPγ isoform 1 (human, UniProt Q9P1W8 29-147); assay: SPR, captured scFv-Fc
T10 construct: also called sirpg; sirp-g
Outline: as §1

[11] = molecular target: T11, human SIRP-α v2 D1 domain (human); assay: SPR, captured scFv-Fc
T11 construct: also called human v2; human α v2
Outline: as §1

[12] = molecular target: T12, cynomolgus SIRP-α D1 domain (SEQ ID NO:11) (cynomolgus, UniProt Q5TFQ8 30-148 (human entry), limits assumed); assay: SPR, captured scFv-Fc
T12 construct: also called cyno1
T12 chain: T6 chain
Outline: as §1

[13] = molecular target: T13, cynomolgus SIRP-α D1 domain (SEQ ID NO:12) (cynomolgus, UniProt Q5TFQ8 30-148 (human entry), limits assumed); assay: SPR, captured scFv-Fc
T13 construct: also called cyno2; Cyno2
T13 chain: T6 chain with E19D, A27V, T28S, V42A, H51N, Q52L, P62A
Outline: as §1

[14] = molecular target: T14, mouse 129 SIRP-α D1 domain (mouse (129 strain), UniProt P97797 32-150); assay: SPR, captured scFv-Fc
T14 construct: also called m129
T14 chain: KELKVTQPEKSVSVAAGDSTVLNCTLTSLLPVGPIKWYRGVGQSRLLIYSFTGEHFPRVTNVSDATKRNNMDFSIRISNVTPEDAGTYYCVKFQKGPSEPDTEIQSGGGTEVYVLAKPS
Outline: as §1

[15] = molecular target: T15, NOD mouse SIRP-α D1 domain (mouse (NOD strain)); assay: SPR, captured scFv-Fc
T15 chain: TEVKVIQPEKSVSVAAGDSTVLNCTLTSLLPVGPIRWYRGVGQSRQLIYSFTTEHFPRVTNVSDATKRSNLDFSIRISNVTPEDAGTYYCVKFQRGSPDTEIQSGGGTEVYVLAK
Outline: as §1

[16] = molecular target: T16, C57BL/6 mouse SIRP-α D1 domain (mouse (C57BL/6 strain), UniProt P97797 32-148); assay: SPR, captured scFv-Fc
T16 sequence: T2 sequence
Outline: as §1

human SIRPβ isoform 1 [17] = molecular target: T17, human SIRPβ isoform 1 (human, UniProt O00241 30-148); assay: SPR, captured scFv-Fc
T17 construct: also called sirpb1; Sirpb1
Outline: as §1

[18] = molecular target: T6, cynomolgus SIRP-α D1 domain (cyno1); assay: SPR
Outline: as §1

[19] = molecular target: T7, cynomolgus SIRP-α D1 domain (cyno2); assay: SPR
Outline: as §1

[20] = molecular target: T18, mouse 129 SIRP-α D1 domain (mouse (129 strain), UniProt P97797 32-150); assay: SPR
T18 construct: also called m129
T18 chain: T14 chain
Outline: as §1

[21] = molecular target: T19, NOD mouse SIRP-α D1 domain (mouse (NOD strain)); assay: SPR
T19 chain: T15 chain
Outline: as §1

human SIRP-α v1 [22] = molecular target: T8, human SIRP-α v1; assay: SPR
Outline: as §2

human SIRP-α v2 [23] = molecular target: T20, human SIRP-α v2 (human); assay: SPR
T20 construct: also called Human v2; Human V2
Outline: as §2

human SIRP-α v1 [24] = molecular target: T8, human SIRP-α v1; assay: SPR, antibody on GLC chip
Outline: (§3)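 SIRP analytes were run over antibody surfaces in PBS pH 7.4 with 0.01% Tween-20 at 25° C, using one-shot injections at 100, 33, 11, 3.7, 1.2 and 0 nM. The antibodies, purified by Protein A, had been amine-coupled (~1000 RU) to a GLC chip of a ProteOn XPR36 biosensor from an 80 nM solution in 10 mM sodium acetate pH 4.5. Association lasted 90 s at a flow of 100 μL/min, and dissociation lasted 1200 s. KD equals kd/ka, obtained by fitting double-referenced data globally to a Langmuir model.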

human SIRP-α v2 [25] = molecular target: T20, human SIRP-α v2; assay: SPR, antibody on GLC chip
Outline: as §3

NOD mouse SIRP-α = molecular target: T21, NOD mouse SIRP-α (mouse (NOD strain)); assay: SPR, antibody on GLC chip
T21 chain: T15 chain
Outline: as §3

BL6 mouse SIRP-α = molecular target: T22, BL6 mouse SIRP-α (mouse (C57BL/6 strain), UniProt P97797 32-148); assay: SPR, antibody on GLC chip
T22 construct: also called C57BL/6
T22 sequence: T2 sequence
Outline: as §3

BALBc mouse SIRP-α = molecular target: T23, BALBc mouse SIRP-α (mouse (BALB/c strain)); assay: SPR, antibody on GLC chip
T23 chain: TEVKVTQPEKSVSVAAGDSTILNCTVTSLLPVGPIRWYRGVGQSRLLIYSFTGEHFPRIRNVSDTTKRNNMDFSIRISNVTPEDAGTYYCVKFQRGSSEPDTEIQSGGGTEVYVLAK
Outline: as §3

human SIRPβ isoform 1 [26] = molecular target: T9, human SIRPβ isoform 1; assay: SPR, antibody on GLC chip
Outline: as §3

human SIRPγ isoform 1 [27] = molecular target: T24, human SIRPγ isoform 1 (human, UniProt Q9P1W8 29-147); assay: SPR, antibody on GLC chip; fitted KD (M) in Table Q; weak binding, 23.9 nM
T24 construct: also called Gamma; Human SIRPg
Method: All experiments were performed at 25° C. using a SPR-based ProteOn XPR36 biosensor (BioRad, Inc, Hercules, Calif.) equipped with GLC or NLC sensor chips. […] Purification was carried out by standard Protein A affinity column chromatography and eluted antibodies were stored in PBS buffer.
For the method using GLC chip, the analytes were injected and flowed over anti-SIRPα antibodies immobilized (˜1000 RUs) on GLC chips using Proteon™ Amine Coupling Kit. For the immobilization step, GLC chip was activated with EDAC/Sulpho-NHS 1:1 (Biorad) diluted 1/100 for 300 s at 25 μL/min. Anti-SIRPα antibodies were diluted to 80 nM concentration in 10 mM sodium acetate buffer pH 4.5 and immobilized to the chip at 30 μL/min for 50 s. Chip was inactivated with ethanolamine for 300 s at 25 μL/min. The analytes (e.g., SIRP-α from different species, SIRP-β, SIRP-γ) were injected in a “one-shot” kinetic mode at nominal concentrations of 100, 33, 11, 3.7, 1.2 and 0 nM. Association times were monitored for 90 s at 100 μL/min, and dissociation times were monitored for 1200 s. The surfaces were regenerated with a 2:1 v/v blend of Pierce IgG elution buffer/4M NaCl.

T8 sequence (P78324 31-149 limits assumed): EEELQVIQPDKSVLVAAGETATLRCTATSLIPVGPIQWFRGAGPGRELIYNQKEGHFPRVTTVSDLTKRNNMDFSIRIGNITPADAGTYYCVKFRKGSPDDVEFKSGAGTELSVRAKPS
T20 sequence (chain, as listed by the source limits assumed): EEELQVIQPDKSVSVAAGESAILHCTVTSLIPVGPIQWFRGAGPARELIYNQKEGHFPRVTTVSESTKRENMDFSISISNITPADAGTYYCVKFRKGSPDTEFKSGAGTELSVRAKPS
T5 sequence (P78324 31-149 limits assumed): as the sequence (P78324 31-149 limits assumed) above

B1: S194 (scFv, V domains shown)
VH: DVQLVESGGGVVRPGESLRLSCAASGFTFRNYGMSWVRQAPGEGLEWVSASSGSGSTYYADSVKGRFTISRDNSKNTLYLQMNSLRAEDTAIYYCAKVTWNNFFDYWGLGTLVTVSS
VL: EIVLAQSPDTLSVSPGERATLTCRASQDVAGKLAWYQQKPGQAPRLLIHATSSRADGIPARFSGSGSGTEFTLTITGLQSEDFAVYYCQQHYDWSPLTFGGGTKVEIK
binding result [1]: no binding (tested: Koff > 5 × 10^3 (legend))
binding result [2]: no binding (tested: Koff > 5 × 10^3 (legend))
binding result (human SIRPβ isoform 1 [3]): no binding (tested: Koff > 5 × 10^3 (legend))
koff [4]: 0.00111 s⁻¹
koff [5]: 0.00117 s⁻¹
koff [6]: 0.00131 s⁻¹
koff [7]: 0.00111 s⁻¹

B2: antibody 214 (antibody, V domains shown)
VH: DVQLVESEGGVVRPGESLRLSCEASGFTFRNSYMTWVRQAPGEGLEWVSTISDTGDTAYYADSVKGRFTISRDNSKNSLYLQMNSLRAEDTAIYYCAKSWIWWTFFDYWGLGTLVTVSS
VL: ALTQPASVSANLGGTVEITCSGGNSNHYGWYQQKSPGSAPVTLIYADTNRPSNIPSRFSGSTSGSTSTLTITGVQAEDEAVYYCGGSSTGDGIFGAGTTLTVL
notes: also called S214
binding result (human SIRP-α v1 [8]): no binding
binding result (human SIRPβ isoform 1 [9]): no binding

B3: S138 scFv-Fc (scFv)
scFv: EIVLTQSPGTLSVSPGERVILTCRASQSVDTYNLAWYQQKPGQAPRLLIYDLSTRATGIPDRFSGSGSGTEFTLTINSLEPEDFAVYYCHQYYDWPPYTFGGGTKVEIKGQSSRSSGGGGSSGGGGSDVQLVESGGGVVRPGESLRLSCAASGFTFSNYAMNWVRQAPGEGLEWVSGISGRGGDTYYADSVKGRFTISRDNSKNTLYLQMNSLRAEDTAIYYCAKGTWNYGSFDYWGLGTLVTVSSSLDPKSSDKTDTCPPCPAPELLGGPSVFLFPPKPKDTLMISRTPEVTCVVVDVSHEDPEVKFNWYVDGV
notes: scFv-Fc; Human framework
binding result (human SIRPγ isoform 1 [10]): no binding (tested: 100 nM)
binding result [11]: no binding (tested: 100 nM)
binding result [12]: no binding (tested: 100 nM)
binding result [13]: no binding (tested: 100 nM)
binding result [14]: no binding (tested: 100 nM)
binding result [15]: no binding (tested: 100 nM)
binding result [16]: no binding (tested: 100 nM)
binding result (human SIRPβ isoform 1 [17]): no binding (tested: 100 nM)

B4: S45 (scFv, V domains shown)
VH: AVTLDESGGGLQTPGGALSLVCKASGFTFSSYAMGWVRQAPGKGLEWVAGIDDDGSTANYGPAVKGRATISRDNGQSTVRLQLNNPRAEDSGTYFCAKASVTGWSAHISGRLDTWGHGTEVIVSS
VL: ALTQPASVSANPGETVKITCSGGGIYYYGWYQQKSPGSAPVTLIYENDKRPSDIPSRFSGSTSGSTNTFTITGVQAEDEAVYYCGGYDSNTTSGIFGAGTTLTVL
notes: also called clone 45; scFv-Fc form of AB45
binding result [18]: no binding (tested: Koff > 5 × 10^3 (legend))
binding result [19]: no binding (tested: Koff > 5 × 10^3 (legend))
binding result [20]: no binding (tested: Koff > 5 × 10^3 (legend))
binding result [21]: no binding (tested: Koff > 5 × 10^3 (legend))
binding result [2]: no binding (tested: Koff > 5 × 10^3 (legend))
koff [4]: 4.76e-05 s⁻¹

B5: antibody 136 (antibody, V domains shown)
VH: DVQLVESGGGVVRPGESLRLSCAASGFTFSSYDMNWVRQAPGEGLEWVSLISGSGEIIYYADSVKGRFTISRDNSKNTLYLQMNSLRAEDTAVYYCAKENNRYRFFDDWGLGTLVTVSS
VL: ETVLTQSPGTLTLSPGERATLTCRASQSVYTYLAWYQEKPGQAPRLLIYGASSRATGIPDRFSGSGSGTEFTLTISSLQSEDFAVYYCQQYYDRPPLTFGGGTKVEIK
notes: also called AB136; S136
Kd (human SIRP-α v1 [22]): 0.458 nM
Kd (human SIRP-α v2 [23]): 3.22 nM
Kd (human SIRP-α v1 [24]): 0.458 nM
Kd (human SIRP-α v2 [25]): 1.63 nM
Kd (NOD mouse SIRP-α): 0.554 nM
Kd (BL6 mouse SIRP-α): 12.7 nM
Kd (BALBc mouse SIRP-α): 0.35 nM
Kd (human SIRPβ isoform 1 [26]): 4.35 nM
Kd (human SIRPγ isoform 1 [27]): 23.9 nM
